# Measured values: article PMC9425024
# Values joined by “and” are separate entries in the source; they are usually repeats but may differ in a detail not shown here. Identical values can stand only once.
# What was measured:
# [1] = target: CTD At ProXp-ala (Arabidopsis thaliana); assay: SEC-MALS; Superdex 200 Increase 10/300 GL in 50 mM Hepes pH 6.8, 30 mM KCl, 2 mM DTT, 1 mM MgCl2; 100 μl of 3 mg/ml WT, 6 mg/ml ΔCTD or 1.5 mg/ml CTD injected; self-association
# [2] = target: wildtype Arabidopsis thaliana (At) ProXp-ala (Arabidopsis thaliana); assay: as above
stoichiometry N [1],stoichiometry N [2],Substance
2 and 4,–,CTD At ProXp-ala (domain or fragment)
–,2,wildtype Arabidopsis thaliana (At) ProXp-ala (enzyme)
